{"source": "paper PMC12005531", "about": "“Structure of the scaffolding protein and portal within the bacteriophage P22 procapsid provides insights into the self-assembly process” (PLOS Biology, 2025)", "molecular_target": "the molecule itself", "experiment": "cryo-EM structure; P22 procapsids (upper CsCl band) from infected S. typhimurium, in phage buffer (10 mM Tris-HCl, 1 mM MgCl2, pH 7.4); symmetry-mismatch reconstruction at about 9 Å and local reconstructions (portal 3.0 Å with C12, nodules 4.9 Å, SP trimer 6.9 Å, SP tetramer 6.9 Å, C-loop 6.7 Å); AlphaFold2 model of gp8 fitted into the maps", "note": "Several values for one entry are separate records, joined by “and”; a condition that tells them apart may be missing. Equal values may be shown once."}
{"protein": "bacteriophage P22 scaffolding protein gp8 (natural protein, UniProt P26748 1-303, looked up, scaffolding protein gp8 of bacteriophage P22, 303 amino acid residues, 33.6 kDa; domains: N-loop 1-57, base 58-84 and 163-245, column 85-162, C-loop 246-267, hook 268-303; the N-loop was not resolved; Native protein within the procapsid; About 250-300 copies per procapsid, from cited work; also called SP; P22 SP; source: phage P22 propagated in S. typhimurium; inside procapsids purified by CsCl …) MEPTTEIQATEDLTLSGDHAAASADSLVVDNANDNAGQEEGFEIVLKDDETAPKQDPAKNAEFARRRIERKRQRELEQQMEAVKRGELPESLRVNPDLPPQPDINAYLSEEGLAKYDYDNSRALAAFNAANTEWLMKAQDARSNAVAEQGRKTQEFTQQSAQYVEAARKHYDAAEKLNIPDYQEKEDAFMQLVPPAVGADIMRLFPEKSAALMYHLGANPEKARQLLAMDGQSALIELTRLSERLTLKPRGKQISSAPPADQPITGDVSAANKDAIRKQMDAAASKGDVETYRKLKAKLKGIR", "values": [{"measurement": "stoichiometry N", "value": "2 and 3 and 4"}]}
